Experimental data as given in the supplement of paper PMC7125110.
± gives the standard error. For part of these data: This sample holds only a part of the variants without activity.

B1: glmS ribozyme (parent)
chain: AUAAAAGCGCCAGAACUACAGAAAUGUAGUUGACGAGGAGGAGGUUUAUCGAAUUUUCGGCGGAUGCCUCCAAA

Assays:
Conditions in all cases: with glucosamine-6-phosphate
[1] = variants of: B1; experiment: kcat; higher = faster cleavage; RNA array
Summary of the method: (§1)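 Using a hybridised Cy3 probe at 37 °C, barcoded ribozyme variants transcribed in situ by E. coli RNA polymerase on sequenced MiSeq chips were monitored across tiles imaged over ~14 h. The flow contained glucosamine-6-phosphate from 40 μM to 10 mM in HEPES/KCl/Mg(OAc)2 buffer. Signals were normalised to baseline and to non-cleaving reference variants before per-tile medians were fit to one- or two-exponential decays to yield kobs. Weighted Michaelis–Menten fits across concentrations gave kcat and KM.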

[2] = variants of: B1; experiment: self-cleavage kobs at 40 uM GlcN6P; higher = faster cleavage; RNA array
Summary of the method: as §1

[3] = variants of: B1; experiment: self-cleavage kobs at 160 uM GlcN6P; higher = faster cleavage; RNA array
Summary of the method: as §1

[4] = variants of: B1; experiment: self-cleavage kobs at 640 uM GlcN6P; higher = faster cleavage; RNA array
Summary of the method: as §1

[5] = variants of: B1; experiment: self-cleavage kobs at 2500 uM GlcN6P; higher = faster cleavage; RNA array
Summary of the method: as §1

[6] = variants of: B1; experiment: self-cleavage kobs at 10000 uM GlcN6P; higher = faster cleavage; RNA array
Summary of the method: as §1

[7] = variants of: B1; experiment: KM; higher = weaker cofactor use; RNA array
Summary of the method: as §1

Variant	kcat [1]	self-cleavage kobs at 40 uM GlcN6P [2]	self-cleavage kobs at 160 uM GlcN6P [3]	self-cleavage kobs at 640 uM GlcN6P [4]	self-cleavage kobs at 2500 uM GlcN6P [5]	self-cleavage kobs at 10000 uM GlcN6P [6]	KM [7]
U31C U54C	0.00689 ± 0.0027 s⁻¹	0.000101 ± 1.8e-05 s⁻¹	0.000254 ± 4.6e-05 s⁻¹	0.00134 ± 0.00024 s⁻¹	0.00166 ± 0.00057 s⁻¹	0.00579 ± 0.00087 s⁻¹	–
U31C U54G	0.00413 ± 0.0012 s⁻¹	0.000143 ± 2.5e-05 s⁻¹	0.000283 ± 4.9e-05 s⁻¹	0.00116 ± 0.00017 s⁻¹	0.00211 ± 0.0004 s⁻¹	0.00388 ± 0.00065 s⁻¹	1.77 ± 0.71 mM
U31C G44U C67G	0.00162 ± 0.00031 s⁻¹	–	–	0.00032 ± 7.1e-05 s⁻¹	0.0011 ± 0.00027 s⁻¹	0.00124 ± 0.00024 s⁻¹	2.43 ± 0.83 mM
G32U A36C	< 1e-05 s⁻¹	–	–	–	< 1e-05 s⁻¹	< 1e-05 s⁻¹	–
G32C U45A	0.000238 ± 2.8e-05 s⁻¹	–	–	2.9e-05 ± 1.3e-05 s⁻¹	0.000113 ± 2.7e-05 s⁻¹	0.000171 ± 2.3e-05 s⁻¹	3.69 ± 1 mM
U31G G59A C70G	3.81e-05 ± 8.1e-06 s⁻¹	–	–	–	3.86e-05 ± 1.5e-05 s⁻¹	–	–
G32U C70A	4.97e-05 ± 4.6e-06 s⁻¹	–	–	4.67e-05 ± 1.8e-05 s⁻¹	5.83e-05 ± 1.3e-05 s⁻¹	4.67e-05 ± 6.5e-06 s⁻¹	–
G32A A64U	< 1e-05 s⁻¹	< 1e-05 s⁻¹	< 1e-05 s⁻¹	< 1e-05 s⁻¹	–	–	–
U31A U69A	0.000105 ± 2.5e-05 s⁻¹	–	7.05e-05 ± 1.9e-05 s⁻¹	7.66e-05 ± 2.3e-05 s⁻¹	0.000163 ± 2.9e-05 s⁻¹	7.86e-05 ± 2.1e-05 s⁻¹	–
G32A C58A	0.00126 ± 0.00024 s⁻¹	–	7.42e-05 ± 1.4e-05 s⁻¹	0.000201 ± 2.2e-05 s⁻¹	0.000498 ± 5.6e-05 s⁻¹	0.00106 ± 0.00016 s⁻¹	3.33 ± 0.92 mM
U31C A53C	0.00137 ± 0.00011 s⁻¹	–	0.00011 ± 3.6e-05 s⁻¹	0.00028 ± 8e-05 s⁻¹	0.0007 ± 0.00011 s⁻¹	0.00116 ± 0.0002 s⁻¹	2.26 ± 0.35 mM
U31A A53G	0.0153 ± 0.0017 s⁻¹	0.00035 ± 4.3e-05 s⁻¹	0.00107 ± 0.00018 s⁻¹	0.0038 ± 0.00071 s⁻¹	0.0096 ± 0.0019 s⁻¹	0.0127 ± 0.002 s⁻¹	1.86 ± 0.27 mM
U31G G37U C68A	2.76e-05 ± 6.9e-06 s⁻¹	–	–	–	–	–	–
U31G A36C	< 1e-05 s⁻¹	–	< 1e-05 s⁻¹	–	–	< 1e-05 s⁻¹	–
U31G A36U	< 1e-05 s⁻¹	–	–	< 1e-05 s⁻¹	–	< 1e-05 s⁻¹	–
G32C G37A U55A C67A C68A	4.68e-05 ± 2.3e-05 s⁻¹	–	–	7.47e-05 ± 3.5e-05 s⁻¹	–	–	–

Variant	kcat [1]	self-cleavage kobs at 40 uM GlcN6P [2]	self-cleavage kobs at 160 uM GlcN6P [3]	self-cleavage kobs at 640 uM GlcN6P [4]	self-cleavage kobs at 2500 uM GlcN6P [5]	self-cleavage kobs at 10000 uM GlcN6P [6]	KM [7]
U31A C67A C68U	6.87e-05 ± 1.5e-05 s⁻¹	–	–	0.000122 ± 3.5e-05 s⁻¹	7.63e-05 ± 1.4e-05 s⁻¹	5.53e-05 ± 1.3e-05 s⁻¹	–
U31A U54G	0.0208 ± 0.0046 s⁻¹	0.00027 ± 3.9e-05 s⁻¹	0.00075 ± 0.00015 s⁻¹	0.00291 ± 0.00094 s⁻¹	0.016 ± 0.0066 s⁻¹	0.0152 ± 0.0024 s⁻¹	3.52 ± 0.99 mM
G32A A53C	0.00145 ± 0.00063 s⁻¹	–	8.36e-05 ± 1.6e-05 s⁻¹	0.000126 ± 1.8e-05 s⁻¹	0.0004 ± 7.3e-05 s⁻¹	0.000944 ± 0.00012 s⁻¹	–
G32U C58G	0.00149 ± 0.00016 s⁻¹	–	3.01e-05 ± 9.4e-06 s⁻¹	0.000102 ± 1.7e-05 s⁻¹	0.000294 ± 7.3e-05 s⁻¹	0.000802 ± 9.7e-05 s⁻¹	8.79 ± 1.3 mM
G32A U47C	0.000343 ± 5.5e-05 s⁻¹	–	–	7.19e-05 ± 1.5e-05 s⁻¹	0.000185 ± 2.3e-05 s⁻¹	0.000258 ± 4.4e-05 s⁻¹	2.45 ± 0.76 mM
G32C U69C	3.02e-05 ± 3.3e-06 s⁻¹	–	–	3.47e-05 ± 1.7e-05 s⁻¹	3.15e-05 ± 1.3e-05 s⁻¹	2.58e-05 ± 1.2e-05 s⁻¹	–
G32A U54A C67G	0.000168 ± 2.5e-05 s⁻¹	–	8.09e-05 ± 1.6e-05 s⁻¹	–	0.000137 ± 2.7e-05 s⁻¹	0.00018 ± 3.3e-05 s⁻¹	0.216 ± 0.1 mM
G32C C67U	2.59e-05 ± 7.6e-07 s⁻¹	–	–	–	–	2.39e-05 ± 5.6e-06 s⁻¹	0.885 ± 0.19 mM
U30G U54G	0.00551 ± 0.002 s⁻¹	0.000203 ± 4.6e-05 s⁻¹	0.000615 ± 0.0001 s⁻¹	0.00144 ± 0.00032 s⁻¹	0.00254 ± 0.00053 s⁻¹	0.00743 ± 0.0011 s⁻¹	–
U31C G41C	4.88e-05 ± 2e-05 s⁻¹	–	–	–	–	–	–
U30G U65C	0.000117 ± 2.1e-05 s⁻¹	–	–	4.91e-05 ± 1.7e-05 s⁻¹	0.000122 ± 2.6e-05 s⁻¹	9.72e-05 ± 2.2e-05 s⁻¹	–
U30G U65G	0.00191 ± 0.00048 s⁻¹	–	8.07e-05 ± 1.4e-05 s⁻¹	0.000378 ± 6e-05 s⁻¹	0.000614 ± 0.0001 s⁻¹	0.00155 ± 0.00019 s⁻¹	3.59 ± 1.4 mM
U30G U65A	0.00108 ± 0.00019 s⁻¹	3.04e-05 ± 1.2e-05 s⁻¹	–	0.000157 ± 2.9e-05 s⁻¹	0.000483 ± 0.00014 s⁻¹	0.000797 ± 0.0001 s⁻¹	3.5 ± 1.1 mM
G32A A39G	0.00635 ± 0.0016 s⁻¹	3.65e-05 ± 8.1e-06 s⁻¹	0.000271 ± 7.2e-05 s⁻¹	0.000619 ± 9.3e-05 s⁻¹	0.00165 ± 0.0003 s⁻¹	0.00403 ± 0.00055 s⁻¹	6.19 ± 2 mM
G32A A39U	0.00242 ± 0.00045 s⁻¹	–	6.05e-05 ± 1.1e-05 s⁻¹	0.000213 ± 2.9e-05 s⁻¹	0.000855 ± 0.0001 s⁻¹	0.00144 ± 0.00017 s⁻¹	6.09 ± 1.6 mM
G32A C61U	< 1e-05 s⁻¹	–	< 1e-05 s⁻¹	< 1e-05 s⁻¹	–	–	–
